Results taken from patent US9308238B2, “Compositions and methods for modulating EMT and uses thereof” (Whitehead Institute for Biomedical Research, priority 2010, dated 2016).

B1: BMP4: Recombinant BMP4 protein obtained from Stemgent (protein, UniProt P12644 293-408, looked up)
Bone morphogenetic protein 4: SPKHHSQRARKKNKNCRRHSLYVDFSDVGWNDWIVAPPGYQAFYCHGDCPFPLADHLNSTNHAIVQTLVNSVNSSIPKACCVPTELSAISMLYLDEYDKVVLKNYQEMVVEGCGCR
B2: SFRP1: Recombinant human SFRP1 protein (R&D Systems), secreted decoy receptor binding canonical and non-canonical Wnt ligands (protein, UniProt Q8N474 32-314, looked up)
Secreted frizzled-related …: SEYDYVSFQSDIGPYQSGRFYTKPPQCVDIPADLRLCHNVGYKKMVLPNLLEHETMAEVKQQASSWVPLLNKNCHAGTQVFLCSLFAPVCLDRPIYPCRWLCEAVRDSCEPVMQFFGFYWPEMLKCDKFPEGDVCIAMTPPNATEASKPQGTTVCPPCDNELKSEAIIEHLCASEFALRMKIKEVKKENGDKKIVPKKKKPLKLGPIKKKDLKKLVLYLKNGADCPCHQLDNLSHHFLIMGRKVKSQYLLTAIHKWDKKNKEFKNFMKKMKNHECPTFQSVFK

How the values were obtained:
MSP-RAS cells [1] = experiment: Tumorsphere assay, MSP-RAS cells; format: cell-based, human; conditions: for reduction of primary tumorsphere formation: SFRP1 1 μg/ml, BMP4 0.5 μg/ml daily during primary sphere formation; for reduction of secondary tumorsphere formation: treated during primary sphere formation only
Method: (§1) FIGS. 4A-4G. Autocrine Signaling controls tumorigenicity and metastasis of MSP-RAS cells. (FIG. 4A) Migration assay: RAS-transformed MSP (MSP-RAS) were seeded in Boyden Chamber migration assays and recombinant SFRP1 (1 μg/ml) and BMP4 protein (0.5 μg/ml) were added; *control vs. single treatment, p<1×10^−8, **single vs. double treatment with SFRP1 and BMP4 (S+B), p<1×10^−4, n=3. (FIG. 4B) Tumorsphere assay: SFRP1 (1 μg/ml) and BMP4 protein (0.5 μg/ml) were added daily during primary sphere formation (5 days), spheres were dispersed and seeded for secondary sphere formation in the absence of further treatment; #control primary vs. secondary sphere formation, p=0.001; *control vs. single treatment, p<1×10^−4, **single vs. double treatment with SFRP1 and BMP4 (S+B), p<0.01, n(tumorspheres)/1000 cells, n=6. (FIG. 4C) Flow cytometry: CD44 and CD24 cell-surface markers of dissociated primary tumorspheres as described in (B). (FIG. 4D) Orthotopic tumor formation after ex vivo treatment during tumorsphere formation: primary tumorspheres as generated in (B) were pooled, dissociated and 1.0×10^5 cells were implanted in the fat pads of mice; shown are tumor weight and incidence, *indicates absence of tumor, n=5 mice/group. (FIG. 4E) Lung metastasis: fluorescence microscopy images of the major left lung lobe showing GFP-expressing metastatic nodules and quantification of the number of lung surface metastases; *control vs. SFRP1 treatment, p<0.05, **SFRP1 vs. BMP4 or double treatment (S+B), p<0.05, n=5 mice/group. (FIG. 4F) Liver metastasis: fluorescence microscopy images of the liver surface showing GFP-expressing micro-metastatic nodules after implantation of cells as described in (D) and quantification: 5 fields of liver surface were counted per mouse, *control vs. single treatment, p<0.05, **single vs. double treatment (S+B), p<0.05, n=5 mice/group. (FIG. 4G) Tumorigenicity assay: MSP-RAS cells suspended in PBS containing SFRP1 (1 μg/ml), BMP4 (0.5 μg/ml), and a combination of both (S+B) were implanted subcutaneously in mice at indicated cell numbers. In addition, 20 μl of PBS or PBS with proteins at indicated doses was injected peri-tumorally at 1, 2, 3 and 7 days after implanting the MSP-RAS cells.
(§2) Mammosphere and tumorsphere assay. Assays were performed as previously described with modifications (Dontu et al., 2003): 1000 cells/well were seeded in 96-well ultra-low adhesion plates (Corning) in MEGM medium containing 1.3% methylcellulose (Stem Cell Technologies) supplemented with 20 ng/ml EGF, 10 ng/ml bFGF (both Sigma) and B27 (Gibco). Primary spheres were dissociated by trypsinization and replated for secondary sphere formation after a period of 5-7 days.

MSP-RAS cells [2] = experiment: Orthotopic tumor formation and metastasis after ex vivo treatment of MSP-RAS tumorspheres; format: in vivo, mice; conditions: for reduction in lung metastases / reduction of metastatic foci in the liver: foci normalized by primary tumor weight, ex vivo treatment; for reduction of tumor weight / reduction of metastatic foci in the liver: on average
Method: as §1
We also wished to determine whether in vitro exposure to SFRP1 and BMP4 influenced subsequent in vivo behavior of MSP-RAS cells. For this purpose, we prepared single-cell suspensions from primary control MSP-RAS tumorspheres or from the residual tumorspheres that had formed during a 5 day in vitro treatment with SFRP1, BMP4 or a combination of both. Following injection of these populations into the mammary fat pads of mice, we noted that the tumors that originated from mammospheres of MSP-RAS cells that had been exposed ex vivo to either SFRP1, BMP4 or a combination of both were reduced in weight by 3-fold on average (FIG. 4D). However, we only observed a modest reduction in tumor incidence for the BMP4 and combination-treated groups (30%, FIG. 4D).
Animal studies. All research involving animals complied with protocols approved by the MIT Committee on Animal Care. For tumorigenicity studies, indicated numbers of cells in 100 μL of Matrigel (BD Biosciences) diluted 1:4 in PBS were injected subcutaneously in the left and right flanks of age-matched female nude (nu/nu) mice. Mice were sacrificed and necropsied after 10 weeks. For orthotopic injections, 1×10^5 cells suspended in PBS were injected into each of the two inguinal mammary glands of age-matched female NOD-SCID mouse. Mice were sacrificed after 10 weeks or when tumors reached a diameter >1 cm. Lung surface metastases were counted using a fluorescent microscope within 3 hr of specimen isolation.

MSP-RAS cells [3] = experiment: Subcutaneous tumorigenicity assay with proteins co-implanted and injected peri-tumorally; format: in vivo, mice; conditions: subcutaneous limiting dilutions with protein; peri-tumoral injection at 1, 2, 3 and 7 days
Method: FIGS. 4A-4G. Autocrine Signaling controls tumorigenicity and metastasis of MSP-RAS cells. (FIG. 4A) Migration assay: RAS-transformed MSP (MSP-RAS) were seeded in Boyden Chamber migration assays and recombinant SFRP1 (1 μg/ml) and BMP4 protein (0.5 μg/ml) were added; *control vs. single treatment, p<1×10^−8, **single vs. double treatment with SFRP1 and BMP4 (S+B), p<1×10^−4, n=3. […] (FIG. 4E) Lung metastasis: fluorescence microscopy images of the major left lung lobe showing GFP-expressing metastatic nodules and quantification of the number of lung surface metastases; *control vs. SFRP1 treatment, p<0.05, **SFRP1 vs. BMP4 or double treatment (S+B), p<0.05, n=5 mice/group. (FIG. 4F) Liver metastasis: fluorescence microscopy images of the liver surface showing GFP-expressing micro-metastatic nodules after implantation of cells as described in (D) and quantification: 5 fields of liver surface were counted per mouse, *control vs. single treatment, p<0.05, **single vs. double treatment (S+B), p<0.05, n=5 mice/group. […]
Animal studies. […] Lung surface metastases were counted using a fluorescent microscope within 3 hr of specimen isolation.

MSP cells = experiment: Mammosphere assay, MSP cells; format: cell-based, human
Method: FIGS. 3A-3E. Autocrine Signaling controls migration and mammosphere formation.
as §2

[4] = 5 day ex vivo treatment, mammary fat pad injection

Molecule | reduction of primary tumorsphere formation (MSP-RAS cells [1]) [%] | reduction of secondary tumorsphere formation (MSP-RAS cells [1]) [%] | reduction in tumor incidence (MSP-RAS cells [2]; [4]) [%] | reduction in lung metastases (MSP-RAS cells [2]) [fold] | reduction of tumor weight (MSP-RAS cells [2]; [4]) [fold] | reduction of metastatic foci in the liver (MSP-RAS cells [2]) [fold] | reduction of tumor incidence (MSP-RAS cells [3]) | reduction of primary mammosphere number (MSP cells; added daily for 5 days (FIG. 3D)) [%] | reduction of secondary sphere formation (MSP cells; treated during primary sphere formation only) [%]
B1 | 40 | 40 | 30 | 7.5 | 3 | 5 | at least one order of magnitude |  | 
B2 | 40 | 40 |  | 2 | 3 | 2.5 | at least one order of magnitude | 40 | 80
